From article PMC10922747 (Cell, 2024)

B1: human PNMA2 (hPNMA2) protein (full length) (natural protein, UniProt Q9UL42 1-364, looked up)
chain: MALALLEDWCRIMSVDEQKSLMVTGIPADFEEAEIQEVLQETLKSLGRYRLLGKIFRKQENANAVLLELLEDTDVSAIPSEVQGKGGVWKVIFKTPNQDTEFLERLNLFLEKEGQTVSGMFRALGQEGVSPATVPCISPELLAHLLGQAMAHAPQPLLPMRYRKLRVFSGSAVPAPEEESFEVWLEQATEIVKEWPVTEAEKKRWLAESLRGPALDLMHIVQADNPSISVEECLEAFKQVFGSLESRRTAQVRYLKTYQEEGEKVSAYVLRLETLLRRAVEKRAIPRRIADQVRLEQVMAGATLNQMLWCRLRELKDQGPPPSFLELMKVIREEEEEEASFENESIEEPEERDGYGRWNHEGDD
B2: mouse PNMA2 (mPNMA2) protein (full length) (natural protein, UniProt Q8BHK0 1-365, looked up)
chain: MAVALLEEWCKIMGVDVQKSLLVVDIPVDCGEPEIQTVLQEALKCVGSYRLLGKIFQKQDNTSVVLVELMEDTDMSVVPSEVQGKGGVWKVIFKTPNQDTEFLQRLNLFLEKEGQTVAGMFRALKHEGVSPATPPCTSPELLAHLTGQAMVHGQRPLLPVKYCKMRIFSGSTAAAPEEEPFEVWLEQATEIAKEWPIPEAEKKRWVAESLRGPALDLMHIVQADNPSISVGECLEAFKQVFGSTESRRTSQVKYLRTYQQEGEKISAYVLRLETLLRRAVEKRAIPRNIADQVRLEQVMAGANLGNVLWCRLQELKDQGPLPTFLQLMKVIREEEEEEDAYFEQESREEPGEREGSGCWNNSRNN

What was measured:
negative-stain EM = target: the molecule itself; assay: negative-stain EM
cryo-EM structure = target: the molecule itself; assay: cryo-EM structure

Row | Protein | binding result (negative-stain EM) | stoichiometry N (cryo-EM structure)
1 | B1 | binds | 
2 | B2 |  | 60
